# According to paper PMC12808100, “The non-catalytic DNA polymerase ε subunit is an NPF motif recognition protein” (Nature Communications, 2025):
# Tests used:
# [1] = target: NPF motif peptide of DONSON (residues 71-88); assay: native holdup (nHU) titration with dot blot; DONSON_71-88-saturated streptavidin resin mixed with control resin at various proportions; extracts of HEK293T cells expressing HA-tagged POLE2 variants; 4 °C, 2 h; depletion quantified with an antibody against the HA tag; apparent
# [2] = target: non-catalytic subunit of DNA polymerase ε (POLE2), endogenous (human (endogenous in Jurkat)) (UniProt P56282); assay: native holdup (nHU) with mass spectrometry; estimate from the difference between the depletion of POLE and of POLE2 by the same NPF motif bait, with about 1 nM of each assumed in the extract; apparent
# Chain of non-catalytic subunit of DNA polymerase ε (POLE2), endogenous (human (endogenous in Jurkat)) (P56282 whole entry): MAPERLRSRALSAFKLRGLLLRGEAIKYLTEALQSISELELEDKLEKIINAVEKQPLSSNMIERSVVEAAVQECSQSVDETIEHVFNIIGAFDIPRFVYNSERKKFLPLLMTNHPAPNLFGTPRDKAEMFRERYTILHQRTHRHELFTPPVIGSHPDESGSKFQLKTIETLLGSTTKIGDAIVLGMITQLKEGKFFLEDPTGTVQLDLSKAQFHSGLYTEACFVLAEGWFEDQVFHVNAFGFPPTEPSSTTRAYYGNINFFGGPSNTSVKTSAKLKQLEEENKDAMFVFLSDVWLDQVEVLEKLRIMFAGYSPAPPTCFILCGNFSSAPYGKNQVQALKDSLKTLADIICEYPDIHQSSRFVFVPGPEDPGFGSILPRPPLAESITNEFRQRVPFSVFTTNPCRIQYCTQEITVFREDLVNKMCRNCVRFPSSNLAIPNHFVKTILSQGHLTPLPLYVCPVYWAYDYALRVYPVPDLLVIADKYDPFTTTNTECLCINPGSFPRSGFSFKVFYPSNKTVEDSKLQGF
# Chain of catalytic subunit of DNA polymerase ε (POLE), endogenous (Q07864 whole entry): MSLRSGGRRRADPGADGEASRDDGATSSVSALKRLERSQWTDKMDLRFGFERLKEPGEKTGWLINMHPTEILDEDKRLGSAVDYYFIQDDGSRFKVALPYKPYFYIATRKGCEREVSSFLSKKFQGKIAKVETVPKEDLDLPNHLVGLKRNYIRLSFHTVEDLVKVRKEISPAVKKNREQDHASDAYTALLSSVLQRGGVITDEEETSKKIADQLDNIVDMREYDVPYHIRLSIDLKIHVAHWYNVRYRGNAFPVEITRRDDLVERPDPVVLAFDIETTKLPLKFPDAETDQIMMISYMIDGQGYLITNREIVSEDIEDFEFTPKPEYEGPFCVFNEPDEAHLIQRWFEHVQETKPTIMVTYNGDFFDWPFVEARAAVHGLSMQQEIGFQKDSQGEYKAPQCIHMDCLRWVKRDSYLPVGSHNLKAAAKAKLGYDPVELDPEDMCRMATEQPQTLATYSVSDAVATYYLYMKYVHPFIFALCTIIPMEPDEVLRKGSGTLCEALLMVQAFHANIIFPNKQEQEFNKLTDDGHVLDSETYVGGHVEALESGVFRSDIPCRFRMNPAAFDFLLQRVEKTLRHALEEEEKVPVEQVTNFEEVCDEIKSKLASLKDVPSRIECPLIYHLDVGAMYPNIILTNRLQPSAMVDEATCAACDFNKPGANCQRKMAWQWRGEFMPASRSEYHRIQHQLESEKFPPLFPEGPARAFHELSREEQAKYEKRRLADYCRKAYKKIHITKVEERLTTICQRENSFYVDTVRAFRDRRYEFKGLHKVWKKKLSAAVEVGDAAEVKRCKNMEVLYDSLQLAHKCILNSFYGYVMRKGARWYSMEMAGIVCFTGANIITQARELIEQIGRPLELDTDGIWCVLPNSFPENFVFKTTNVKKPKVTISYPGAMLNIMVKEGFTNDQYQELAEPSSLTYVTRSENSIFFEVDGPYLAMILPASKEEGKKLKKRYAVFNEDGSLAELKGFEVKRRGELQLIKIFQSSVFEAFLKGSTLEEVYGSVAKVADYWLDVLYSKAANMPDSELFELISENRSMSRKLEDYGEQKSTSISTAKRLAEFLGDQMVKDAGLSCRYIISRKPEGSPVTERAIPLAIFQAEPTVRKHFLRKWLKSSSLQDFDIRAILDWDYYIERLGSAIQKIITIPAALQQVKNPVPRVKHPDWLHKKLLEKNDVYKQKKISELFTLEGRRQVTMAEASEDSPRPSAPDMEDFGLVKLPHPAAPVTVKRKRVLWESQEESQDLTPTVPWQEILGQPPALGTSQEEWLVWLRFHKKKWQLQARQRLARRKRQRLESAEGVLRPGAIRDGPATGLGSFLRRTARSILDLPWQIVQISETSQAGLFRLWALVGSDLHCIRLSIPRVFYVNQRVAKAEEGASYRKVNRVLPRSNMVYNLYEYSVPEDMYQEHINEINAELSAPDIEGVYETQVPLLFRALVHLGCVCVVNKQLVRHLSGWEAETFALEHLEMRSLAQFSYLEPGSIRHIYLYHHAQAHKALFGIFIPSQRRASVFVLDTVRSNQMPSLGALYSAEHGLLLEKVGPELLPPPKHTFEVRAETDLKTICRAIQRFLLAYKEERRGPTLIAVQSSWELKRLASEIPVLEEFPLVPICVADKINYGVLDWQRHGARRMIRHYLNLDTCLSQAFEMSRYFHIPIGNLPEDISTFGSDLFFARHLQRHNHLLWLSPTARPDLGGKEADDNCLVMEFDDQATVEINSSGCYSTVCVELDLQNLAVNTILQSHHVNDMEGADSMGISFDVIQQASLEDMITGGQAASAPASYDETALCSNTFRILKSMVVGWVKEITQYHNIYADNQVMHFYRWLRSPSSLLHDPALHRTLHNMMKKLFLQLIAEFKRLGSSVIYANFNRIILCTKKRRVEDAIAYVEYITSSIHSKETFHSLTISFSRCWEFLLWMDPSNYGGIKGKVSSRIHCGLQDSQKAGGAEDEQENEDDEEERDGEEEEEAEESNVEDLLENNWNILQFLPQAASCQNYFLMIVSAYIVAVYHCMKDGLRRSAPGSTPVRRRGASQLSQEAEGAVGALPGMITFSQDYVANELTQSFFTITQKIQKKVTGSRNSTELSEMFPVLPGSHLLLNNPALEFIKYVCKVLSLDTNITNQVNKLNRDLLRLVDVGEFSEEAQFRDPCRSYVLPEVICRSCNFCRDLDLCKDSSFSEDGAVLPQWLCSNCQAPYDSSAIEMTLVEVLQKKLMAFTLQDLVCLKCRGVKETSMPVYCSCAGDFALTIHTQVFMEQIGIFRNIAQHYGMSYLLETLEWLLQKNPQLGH
# Chain of HA-MBP-POLE2 (P56282 whole entry): as the sequence (P56282 whole entry) above
fold weaker binding than HA-POLE2 [1] [fold],Kd [2] [nM],Substance
10,–,HA-MBP-POLE2 (from UniProt P56282 1-527) (natural protein)
–,0.1 to 0.3,"catalytic subunit of DNA polymerase ε (POLE), endogenous (from UniProt Q07864 1-2286) (natural protein)"
